# Assay results published in the nanobody polyreactivity screen of Harvey et al. (2022).
# Assay: yeast display, Sf9 membrane polyspecificity reagent, FACS + sequencing; frameworks hold sequencing errors
# In short: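 Galactose induction of a Saccharomyces cerevisiae BJ5465 synthetic nanobody display library ran 36–48 hours. The cells were then stained for 1 hour at 4 °C with 10% biotinylated, detergent-solubilized Sf9 membrane reagent, pulled down on streptavidin microbeads and FACS-sorted into low and high (top ~1%) gates on expression and reagent-binding fluorescence. Labels for polyreactivity follow the gate of origin.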
row,Sequence,polyreactivity (PSR sort gate)
1,QVQLVESGGGLVQAGGSLRLSCAASGSIFGNTMGWYRQAPGKEWEFVAAISSTGGNTYYADSVKGRFTISRDNAKITVYLQMNSLKPEDTAVYYCNRRYRYRFGYWGQGTQVTVSS,high polyreactivity
2,QVQLVESGGGLVQAGGSLRLSCAASGSIFGPNAMGWYRQAPGKERELVAAISKSGSSTYYADSVKGRFTISRDNAKNTVYLQMNSLKREDTAVYYCAAKVSYSGVFSYYYWGQGTQVTVSS,high polyreactivity
3,QVQLVESGGGLVQAGGSLRLSCAASGSIFGPYAMGWYRQAPGKERELVAAISKGGGSTYYADSVKGRFTISRDNAKNTVYLQMNSLKPDDTAVYYCAADQDKPYDHWGQGTQVTVSS,low polyreactivity
4,QVQLVESGGGLVQAGGSLRLSCAASGSIFGPYAMGWYRQAPGKERELVAANTWTGGRTYYSDSVKGRFTISRDNAKNTVYLQMNSLKPEDTAVYYCAVRHRYTRAYWGRDYWGQGTQVTVSS,low polyreactivity
5,QVQLVESGGGLVQAGGSLRLSCAASGSIFGPYAMGWYRQAPGKERELVADIRTSGGGTYYADSVKGRFTISRDNAKNTVYLQMNSLKPEDTAVYYCNADPKWEMGSWGQGTQVTVSS,low polyreactivity
6,QVQLVESGGGLVQAGGSLRLSCAASGSIFGPYAMGWYRQAPGKERELVASITNSGSTYYADSVKGRFTISRDNAKNTVYLQMNSLKPEDTAVYYCAVDERTWINDPEEYDYWGQGTQVTVSS,low polyreactivity
7,QVQLVESGGGLVQAGGSLRLSCAASGSIFGPYAMGWYRQAPGKERELVATITSGGRTYYADSVKGRFTISRDNAKNTVYFQLNSLKPEDTAVYYCAAAGKGRYHVRSTMDYWGQGTQVTVSS,high polyreactivity
8,QVQLVESGGGLVQAGGSLRLSCAASGSIFGPYMGWYRQAPGKERELVASVVSTYYADSVKGRFTISRDNAKNTVYLQMNSLKPEDTAVYYCNTQDTKNKSSVFVPSDYWGQGTQVTVSS,low polyreactivity
9,QVQLVESGGGLVQAGGSLRLSCAASGSIFGQNAMGWYRQAPGKEREMVDAITSGAGITYYADSVKGRFTISRDNAKNTVYLQMNSLKPEDTAVYYCNAVPSWSPSALFDYWGQGTQVTVAS,low polyreactivity
10,QVQLVESGGGLVQAGGSLRLSCAASGSIFGQYAMGWYRQAPGKERELVAAITWDGTSTYYADSVKGRFTISRDNAKNTVYLQMNSLKPEDTAVYYCAADFYPYSWEEVDYWGQGTQVTVSS,low polyreactivity
11,QVQLVESGGGLVQAGGSLRLSCAASGSIFGQYTMGWYRQAPGKERELVAVISTRGGSTYYADSVKGRFTISRDNAKNTVYLQMNSLKPEDTAVYYCAASAFRGREMDYWGQGTQVTVSS,low polyreactivity
12,QVQLVESGGGLVQAGGSLRLSCAASGSIFGRNAMGGYRQAPGSERELVARISSRGGSTYYADSVKGRFTISRDNAKNTVDLQMNSLKPEDTAVYYCNRDRTSQTNDYWGQGTQVTVSS,high polyreactivity
13,QVQLVESGGGLVQAGGSLRLSCAASGSIFGRNAMGWYIQAPGKERELVAAINSGGSTNYADSVKGRFTISRDNAKNTVYLQMNSLKPEDTAVYFCAARTYSSGRYYGYVAFYYWGQGTQVTVSS,high polyreactivity
14,QVQLVESGGGLVQAGGSLRLSCAASGSIFGRNAMGWYRHAPGKERELVARISSRGGSTYYADSVKGRFTISRDNAKKTVYLQMNSLKPEDTAVYYCNRDRTWQTNDYWGQGTQVTVSS,high polyreactivity
15,QVQLVESGGGLVQAGGSLRLSCAASGSIFGRNAMGWYRQAPGKERELVAAINYSGTSTYYADSVKGRFTISRDNAKNTVYLQMNSLKPEDTAVYYCAKARHKSPTYTHDSWGQGTQVTVSS,high polyreactivity
16,QVQLVESGGGLVQAGGSLRLSCAASGSIFGRNAMGWYRQAPGKERELVAAITGSTYYADSVKGRFTISRDNAKNTVYLQMNSLKPEDTAVYYCNADYDVGWTYDTEYNYWGQGTQVTVSS,low polyreactivity

row,Sequence,polyreactivity (PSR sort gate)
1,QVQLVESGGGLVQAGGSLRLSCAASGSIFGRNAMGWYRQAPGKERELVAVITSTGGSTYYADSVKGRFTISRDNAKNTVYLQMNSLKPEDTAVYYCAARTRYRYGYWGQGTQVTVSS,high polyreactivity
2,QVQLVESGGGLVQAGGSLRLSCAASGSIFGRNDMGWYRQAPRKERELLARITRGGSTNYADSVKGRVTISRDNAKYTVYLQMNSLKPEDTAVYYCAAGARQYRGVPDRYGYWGQGTQVTVSS,low polyreactivity
3,QVQLVESGGGLVQAGGSLRLSCAASGSIFGRYAMGWYRQAPGKEMELVAAISTGDSTYYADSVKGRFTISRDNAKNTVYLQMNSLKPEDTAVYYCNRRGRRGYDYWGQGTQVTVSS,high polyreactivity
4,QVQLVESGGGLVQAGGSLRLSCAASGSIFGRYAMGWYRQAPGKERELVAAISSSGGRTYYADSVNGRFTISRDNAKNTVYLQMNSLKPEDTAVYYCNAGTPYRGDYWGQGTQVTVSS,high polyreactivity
5,QVQLVESGGGLVQAGGSLRLSCAASGSIFGRYAMGWYRQAPGKERELVAAITFTGGSTYYADSVKGRFTISRDNAKNTVYLQMNSLKPEDTAVYYCAARSLFYRGYGYWGQGTQVTVSS,high polyreactivity
6,QVQLVESGGGLVQAGGSLRLSCAASGSIFGRYAMGWYRQAPGKERELVAAITRSGVSTYYADSVKGRFTISRDNAKNTVYLQMNSLKPEDTAVYYCNAYYPIRSSPNGYYYWGQGTQVTVSS,high polyreactivity
7,QVQLVESGGGLVQAGGSLRLSCAASGSIFGSNAMGWYRQAPGKERELVAAITNTGRTNYADSVKGRFTISRDNAKNTVYLQMNSLKPEDTAVYYCNTDGYEFTHFAAGSGWRFDYWGLGTQVTVSS,low polyreactivity
8,QVQLVESGGGLVQAGGSLRLSCAASGSIFGSNMGWYRQAPGKERELVAAISSRGGRTYYADSVKGRFTISRVNAKNTVYLQMNSQKPEDTAVYYCATRTFRGGRGYEYWGQGTQVTVSS,high polyreactivity
9,QVQLVESGGGLVQAGGSLRLSCAASGSIFGSYAMGWYRPAPGKERELVAGITYRGSSTYYADSVKGRFTISRDNAKNTVYLQMNSLKPEDTAVYYCAADSVFDEYDYWGQGTQVTVSS,low polyreactivity
10,QVQLVESGGGLVQAGGSLRLSCAASGSIFGSYAMGWYRQAPGKERELVAAITYSGGSTYYADSVKGRFTISRDNAKNTVYLHMNSLKPEDTAVYYCAADYSFYWAYFDYWGQGTQVTVSS,high polyreactivity
11,QVQLVESGGGLVQAGGSLRLSCAASGSIFGTNAMGWYRPAPGKERELVAAINWSGGTTYYADSVKGRFTISRDIAKNTVYLQMNSLKPEDTAVFYCNVGYPSIYDYWGQGTQVTVSS,low polyreactivity
12,QVQLVESGGGLVQAGGSLRLSCAASGSIFGTNAMGWYRQAPGKERELVAAITGRGGSTYYADSVKGRFTISRDNAKNTVYLQMNSLKPEDTAVYYCAVKISTYTYGYWGQGTQVTVSS,high polyreactivity
13,QVQLVESGGGLVQAGGSLRLSCAASGSIFGTNAMGWYRQAPGKERELVATITSAGSTYYADSVKGRFTISRYNAKNTVYLQMNSLKPEDTAVYYCARQATGYVYREYEYWGQGTQVTVSS,low polyreactivity
14,QVQLVESGGGLVQAGGSLRLSCAASGSIFGTNTMGWYRQAPGKERELVAAIRLSDSSTYYADSVKGRFTISRDNAKNTVYLQMNSLKPEDTAVYYCAVDYRAYHYYRYDYWGQGTQVTVSS,low polyreactivity
15,QVQLVESGGGLVQAGGSLRLSCAASGSIFGTYAMGWYIQAPGKEREFVAAISWSDGSTYYADSVKGRFTISRDNAKNTVYLQMNSLKPEDTAVYYCAAGPSQYTEFDYWGQGTQVTVSS,low polyreactivity
16,QVQLVESGGGLVQAGGSLRLSCAASGSIFGVNAMGWYRQAPGKERELVASISLSDDRTYYADSVKGRFTISRDNAKNTVYLQMNSLKPEDTAVYYCARRILWYWDVYPSLAEYDYWGQGTQVTVSS,low polyreactivity
